Measurements reported in patent US20240294641A1 (CHILDREN S MEDICAL CENTER, published 2024).
Positions count from the first letter of the chain named.

B1: M1-1 (antibody, V domains shown)
VH: QVQLVESGGDVVQPGGSLRLSCAASGVAFRDYGMHWVRQAPGKGLEWVAVIWYDGSKKYYGDSVKGRFTVSRDNSKNMLYLEMNGLKAEDTAMYYCARNDDYWGQGTLVTVSS
VL: EIVLTQSPATLSLSPGERATLSCRASQSVSNSLSWYQQNPGQSPRLIIYDTSKRATGIPARFSGSGSGTDFTLTINNLETEDFAVYYCHQRSDWPLTFGGGTKVEIK
notes: Expressed as human IgG4/kappa in 293F or Expi293 cells; retains the CDR H3 of 17D8; also called 319-9-8
B2: M2-3 (antibody, V domains shown)
VH: QGHLVESGGDVVLPGGSLRLSCTESGVDLSDFGIHWVRQTPGKGLEWVALIWYDGSKKFYADSVKDRFTISRDNSKNMVYLEMISLRVEDTAMYFCARGIRRGPWFTYWGPGTLVTVST
VL: EIVLTQSPVILSLSPGERATLSCRASQSISSDLAWFQQTPGQAPRLIIYDASNRATGIPARFSGSGSGTDFTLTISSLEPEDFAVYYCQQRSNWPLTFGGGTKVEIK
notes: Expressed as human IgG4/kappa in 293F or Expi293 cells; also called 397-27-25
B3: M1-7 (antibody, V domains shown)
VH: QLQLVESGGDVVQPGGSLRLSCAASGVVFSDFGLEWVRQAPGKGLEWLAVIWYDGSRKHYADSVKGRFTISRDNSKNMLYLQMNSLRVEDTAMYYCARCHSKEDYWGQGTLVTVSS
VL: EIEVTQSPATLSLSPGERATLSCRASQSIDTDLAWFQQRPGQTPRLIIYDASKRATGIPARFSGGGSGTDFTLTISSLEPEDFAVYYCQQRTTWPLTFGGGTKVEIK
notes: Expressed as human IgG4/kappa in 293F or Expi293 cells; also called 319-9-75
B4: M1-4 (antibody, V domains shown)
VH: QVQLVESGGDVVQPGGSLRLSCAVSGVTFGDFGFEWVRQAPGKGLEWVAVIWYDGSRKHYAESVRGRFTISRDNSRNMMYLEMTGLRVEDTAKYYCTRSHSHEDYWGQGTLVTVSS
VL: EIVLTQSPATLSLSPGERATLSCRASQSISNYLAWFQQKSGQAPRLIIHDAFKRAAGIPTRFSGSGSGTDFTLTISSLEPEDFAVYYCQQRDNWPLNFGGGTKVEIK
notes: Expressed as human IgG4/kappa in 293F or Expi293 cells; also called 319-9-27
B5: M1-6 (antibody, V domains shown)
VH: B4 VH with P14S, T28V, G30S, F32Y, E62D, R65Q, S75F, M79L, E82Q
VL: EIVLTQSPATLSLSPGERATLSCGASQNIDNSLAWFQQKPGQAPRLIIYDASKRATGIPARFSGSGSGTDFTLTISTLEPEDFAVYYCQQRDHWPLNFGGGTKVEVK
notes: Expressed as human IgG4/kappa in 293F or Expi293 cells; also called 319-9-53
B6: M2-5 (antibody, V domains shown)
VH: QVQLVESGGDVVQPGGSLRLSCAASGVVFSDYGLYWVRQAPGKGLEWVALIWYDGSKKFYADSVKGRFSISRDNSKNMLYLQMNNLRADDSAIYYCSRGIRQGPWFAYWGQGTRVTVSP
VL: B2 VL with V9A, I10T, A34T, T39K, A84V, Q89L, N93D
notes: Expressed as human IgG4/kappa in 293F or Expi293 cells; also called 397-27-93
B7: M2-4 (antibody, V domains shown)
VH: QVQLVESGGDVVQPGGSLRLSCAASGVAFRNYGMHWVRQAPGKGLEWVAIIWYDGSNKYYADSVKGRFTISRDNSKNMLYLQMNSLRAEDTAMYYCARLSIGTTHYFDTDDYWGQGTSVTVSS
VL: EIVLTQSPATLSLSPGERATLSCRASQSVSSYLAWYQQKVGQAPRLIIFDASNRATGIPARFSGSGSGTDFTLTITSLDPEDFAVYYCQQRSAWPLTFGGGTKVEIR
notes: Expressed as human IgG4/kappa; 6xHis tag at the C-terminus of the Fc for ELISA
B8: M2-2 (antibody, V domains shown)
VH: QVQLVESGGDVVQPGGSLRLSCSASGLVISDYGMNWVRQAPGKGLEWVGLIWYDGSKKYYSDFVKGRFTISRDNSKNILYLQMNNLRAEDTAMYYCARFLIGATRRGNAMDYWGQGTSVTVSS
VL: B2 VL with I2V, V9A, I10T, S30D, F36S, T39K, A43P, N93D, K107R
notes: Expressed as human IgG4/kappa in 293F or Expi293 cells; also called 397-27-23
B9: M1-2 (antibody, V domains shown)
VH: B3 VH with L2V, V28A, F32Y, L34M, M78I, V88A, E103D
VL: B3 VL with E3V, V4L, S7F, A25T, S28N, T31S, R39K, T43A, K53N, S76T
notes: Expressed as human IgG4/kappa in 293F or Expi293 cells; also called 319-9-15
B10: M1-3 (antibody, V domains shown)
VH: QEWLVESGGDVVQPGGSLRLSCATSKVTFNDFGIHWVRQAPGKGLEWVAIIWYDGSRNHYADSVRGRFTLSRDNSKNMVHLHMSSLRTEDTAMYYCARGIHSNDDYWGQGTMVTVSS
VL: EIVLTQSPATLSLSPGERATLSCRTSQSVSSDLAWFQQKPGQAPRLFIFDASKRVNGIPARFSGSGSGTDFTLTISSLEPEDFAVYYCQQRTDWPLTFGGGSRVEIK
notes: Expressed as human IgG4/kappa in 293F or Expi293 cells; also called 319-9-17
B11: 17D8 antibody (antibody, V domains shown)
VH: B1 VH with R30S, D31N, K57N, G61A, V70I, E82Q, G85S, K87R
VL: B7 VL with V40P, F49Y, T76S, D79E, A93N, R107K
notes: Prototype anti-PD1 antibody (U.S. Pat. No. 8,008,449 B2); Produced as human IgG4/kappa; His-tagged for ELISA, untagged for Biacore
B12: M2-1 (antibody, human IgG4, V domains shown)
VH: B8 VH with I29F, S30R, S56T, I78M, M93I, T120I
VL: B2 VL with I2V, V9A, I10T, S30D, F36S, T39K, P40T, A43P, N93D, K107R
notes: Expressed as human IgG4/kappa; without His tag and Protein A purified for Biacore; also called 397-27-3
B13: M1-5 (antibody, human IgG4, V domains shown)
VH: QVQLVESGGDVVQPGGSLRLSCTVSGAVFRDLGMEWVRQAPGKGLEWLAVIWYDGGRKHYADSVKGRFTISRDNSRNMLFLQMNGLRVDDTAMYYCTRSHSTDDYWGQGTLVTVSS
VL: B4 VL with L13V, N31S, Y32D, S40P, D50G, F52S, A56T, T60A, N93S
notes: Expressed as human IgG4/kappa; without His tag and Protein A purified for Biacore; also called 319-9-34

What follows are binders tested against T1, full-length human PD1 expressed on NS1 cells (PD1-NS1) (human, UniProt Q15116 25-288) (assay: FACS on PD1-NS1 cells, PE-anti-human kappa).
T1 construct: whole, on cells; also called surface-expressed PD1; PD1 expressing cell line
T1 sequence (Q15116 25-288): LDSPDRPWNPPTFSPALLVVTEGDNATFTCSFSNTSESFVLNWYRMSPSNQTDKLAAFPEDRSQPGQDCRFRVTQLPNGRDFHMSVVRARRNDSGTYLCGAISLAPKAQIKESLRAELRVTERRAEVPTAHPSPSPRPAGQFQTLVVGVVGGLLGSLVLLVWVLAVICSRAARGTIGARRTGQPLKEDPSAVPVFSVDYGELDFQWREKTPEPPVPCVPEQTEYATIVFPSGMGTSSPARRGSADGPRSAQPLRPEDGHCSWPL
Procedure: To test the binding of anti-PD1 antibodies to surface expressed PD1, full-length human PD1 in mouse plasmacytoma cell line, NS1, was expressed. […] A construct that expresses the full length human PD1 was transfected into NS1 cells, and clones with stable integration of the expression construct were obtained. […] For the FACS analysis in FIG. 5B, the PD1-NS1 cells were incubated with anti-PD1 antibodies. […] The FACS staining reaction was analyzed on Attune NXT FACS machine, and the data were plotted with FlowJo 10 software.

Row | binding result | Binder
1 | binds | B1
2 | binds | B2
3 | binds | B3

Target: T1, full-length human PD1 expressed on NS1 …
Assay: FACS on PD1-NS1 cells, PE-anti-human kappa
Remark: another data set of the same source

Row | binding result | Binder
4 | binds | B4
5 | binds | B5
6 | binds | B6
7 | binds | B7
8 | binds | B8
9 | binds | B9
10 | binds | B10

What follows are binders tested against T2, PD1 extracellular domain, without fusion to other proteins (human, UniProt Q15116 25-170) (assay: ELISA, plate coated with PD1 extracellular domain without Fc fusion, OD405).
T2 construct: extracellular domain; also called unfused PD1; monomeric PD1
T2 sequence (Q15116 25-170): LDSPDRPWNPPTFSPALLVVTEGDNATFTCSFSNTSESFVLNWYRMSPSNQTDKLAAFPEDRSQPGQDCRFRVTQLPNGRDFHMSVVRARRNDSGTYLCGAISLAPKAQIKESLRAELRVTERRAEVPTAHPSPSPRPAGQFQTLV
Source text: (§1) ELISA was used to compare the PD1 binding activities of the new and previous anti-PD1 antibodies. The ELISA coating antigen was a recombinant protein of the extracellular domain of PD1, without fusion to other proteins so that the ELISA measured binding activities specific to PD1.
In this ELISA experiment, PD1 extracellular domain, without Fc fusion, was coated on the ELISA plate.

Row | binding result | Binder
11 | binds | B1
12 | binds | B2
13 | binds | B3

Target: T2, PD1 extracellular domain, without …
Assay: as above
Remark: another data set of the same source
Source text: as §1

Row | binding result | Binder
14 | binds | B4
15 | binds | B5
16 | binds | B6
17 | binds | B7
18 | binds | B8
19 | binds | B9
20 | binds | B10

What follows are binders tested against T2, PD1 extracellular domain, without … (assay: Biacore (SPR), antibody immobilized on the sensor chip, PD1 extracellular domain in flow).
Procedure: In this assay, antibodies were immobilized on sensor chips, and PD1 extracellular domain, the same protein used in the ELISA experiment in FIG. 5C, flowed through sensor chip. The kinetics of PD1/antibody interaction was measured in real time. The table lists the association rate constant (kₐ), dissociation rate constant (kd) and equilibrium dissociation constant (KD) for each antibody.
Biacore analysis of the kinetics of the interaction between anti-PD1 antibodies and PD1 was performed by Affina Biotechnologies. Given the quantitative and sensitive nature of the assay, non-physiological modifications of the antibodies and PD1 were minimized. […] The PD1-Fc fusion protein contains a TEV protease cleavage site. After TEV digest, the PD1 portion was separated from the Fc region. […] However, in the context of the PD-Fc fusion, PD1 is dimerized through the Fc region and may engage in bivalent interactions with IgG antibodies. The avidity effect can cause major deviations from the actual binding affinity between monomeric PD1 and single antigen-binding site. Separation of PD1 from the Fc portion prevented this error. In the biacore assay, the antibodies were immobilized on sensor chips and PD1 was passed over the immobilized antibodies. Association and dissociation of antibodies and PD1 were detected in real time.

Row | Kd [nM] | koff [s⁻¹] | kon [M⁻¹ s⁻¹] | Binder
21 | 3.4 | 0.0013 | 387000 | B11
22 | 3.7 | 0.00074 | 199000 | B12
23 | 2.1 | 0.0021 | 995000 | B13
